{"source": "patent US20230183713A1", "about": "“SITE-SPECIFIC RECOMBINASES FOR EFFICIENT AND SPECIFIC GENOME EDITING” (TECHNISCHE UNIVERSITÄt DRESDEN, published 2023)", "proteins": {"B1": {"name": "Cre recombinase monomer with K201C mutation (protein)", "chain": "MSNLLTVHQNLPALPVDATSDEVRKNLMDMFRDRQAFSEHTWKMLLSVCRSWAAWCKLNNRKWFPAEPEDVRDYLLYLQARGLAVKTIQQHLGQLNMLHRRSGLPRPSDSNAVSLVMRRIRKENVDAGERAKQALAFERTDFDQVRSLMENSDRCQDIRNLAFLGIAYNTLLRIAEIARIRVKDISRTDGGRMLIHIGRTCTLVSTAGVEKALSLGVTKLVERWISVSGVADDPNNYLFCRVRKNGVAAPSATSQLSTRALEGIFEATHRLIYGAKDDSGQRYLAWSGHSARVGAARDMARAGVSIPEIMQAGGWTNVNIVMNYIRNLDSETGAMVRLLEDGD"}, "B2": {"name": "Cre recombinase monomer with Q133H mutation (protein)", "chain": "B1 chain with Q133H, C201K"}, "B3": {"name": "Cre recombinase monomer with E176W mutation (protein)", "chain": "B1 chain with E176W, C201K"}, "B4": {"name": "Cre recombinase monomer with K201D mutation (protein)", "chain": "B1 chain with C201D"}}, "key": {"[1]": {"target": "T1, Cre recombinase monomer with R292Q mutation", "T1 chain": "B1 chain with C201K, R292Q"}, "[2]": {"target": "T2, Cre recombinase monomer with Q311R mutation", "T2 chain": "B1 chain with C201K, Q311R"}, "[3]": {"target": "T3, Cre recombinase monomer with W315N mutation", "T3 chain": "B1 chain with C201K, W315N"}, "[4]": {"target": "T4, Cre recombinase monomer with R292A mutation", "T4 chain": "B1 chain with C201K, R292A"}, "[5]": {"target": "T5, Cre recombinase monomer with K201Q mutation", "T5 chain": "B1 chain with C201Q"}, "[6]": {"target": "T6, Cre recombinase monomer with K201P mutation", "T6 chain": "B1 chain with C201P"}}, "note": "Positions count from the first letter of the chain named. In names and notes the source's numbering stands."}
{"protein": "B1", "values": [{"measurement": "Median dimer activity (recombination on loxP)", "setting": "[1]", "result": 52, "unit": "%"}, {"measurement": "Median dimer activity (recombination on loxP)", "setting": "[2]", "result": 93, "unit": "%"}]}
{"protein": "B2", "values": [{"measurement": "Median dimer activity (recombination on loxP)", "setting": "[3]", "result": 33, "unit": "%"}, {"measurement": "Median dimer activity (recombination on loxP)", "setting": "[4]", "result": 48, "unit": "%"}, {"measurement": "Median dimer activity (recombination on loxP)", "setting": "[2]", "result": 96, "unit": "%"}]}
{"protein": "B3", "values": [{"measurement": "Median dimer activity (recombination on loxP)", "setting": "[5]", "result": 28, "unit": "%"}, {"measurement": "Median dimer activity (recombination on loxP)", "setting": "[2]", "result": 90, "unit": "%"}]}
{"protein": "B4", "values": [{"measurement": "Median dimer activity (recombination on loxP)", "setting": "[6]", "result": 70, "unit": "%"}]}
